Results on six molecules are retold here after publication PMC9636267 (2022).

The labels stand for the following.
T1: HCoV-229E S1 subunit (17–560 aa) (human coronavirus 229E, UniProt P15423 17-560)
T1 chain: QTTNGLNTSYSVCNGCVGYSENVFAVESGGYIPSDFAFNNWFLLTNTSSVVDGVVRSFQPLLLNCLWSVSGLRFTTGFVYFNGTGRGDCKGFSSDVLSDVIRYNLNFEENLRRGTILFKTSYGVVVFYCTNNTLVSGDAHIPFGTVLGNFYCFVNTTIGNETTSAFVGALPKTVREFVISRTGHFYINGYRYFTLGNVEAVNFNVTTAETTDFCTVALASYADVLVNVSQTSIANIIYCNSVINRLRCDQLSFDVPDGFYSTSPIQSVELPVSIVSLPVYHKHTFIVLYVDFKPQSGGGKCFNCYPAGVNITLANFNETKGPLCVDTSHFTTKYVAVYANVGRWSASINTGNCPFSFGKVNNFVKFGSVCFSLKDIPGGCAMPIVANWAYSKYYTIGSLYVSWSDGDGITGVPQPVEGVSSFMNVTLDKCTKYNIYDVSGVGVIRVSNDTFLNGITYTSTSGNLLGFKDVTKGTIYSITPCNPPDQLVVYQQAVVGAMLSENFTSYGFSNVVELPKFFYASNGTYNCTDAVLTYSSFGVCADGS

T2: HCoV-229E NTD (17–265 aa) (human coronavirus 229E, UniProt P15423 17-265)
T2 chain: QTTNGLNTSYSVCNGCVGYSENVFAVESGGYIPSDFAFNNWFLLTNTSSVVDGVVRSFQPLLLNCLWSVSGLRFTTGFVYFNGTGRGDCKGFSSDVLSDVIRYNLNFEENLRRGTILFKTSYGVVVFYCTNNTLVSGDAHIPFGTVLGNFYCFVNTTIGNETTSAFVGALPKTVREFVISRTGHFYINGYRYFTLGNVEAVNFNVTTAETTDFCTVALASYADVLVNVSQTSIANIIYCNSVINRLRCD

T3: HCoV-229E S ectodomain (17–1115 aa), 229E S trimer (human coronavirus 229E, UniProt P15423 17-1115)
T3 chain: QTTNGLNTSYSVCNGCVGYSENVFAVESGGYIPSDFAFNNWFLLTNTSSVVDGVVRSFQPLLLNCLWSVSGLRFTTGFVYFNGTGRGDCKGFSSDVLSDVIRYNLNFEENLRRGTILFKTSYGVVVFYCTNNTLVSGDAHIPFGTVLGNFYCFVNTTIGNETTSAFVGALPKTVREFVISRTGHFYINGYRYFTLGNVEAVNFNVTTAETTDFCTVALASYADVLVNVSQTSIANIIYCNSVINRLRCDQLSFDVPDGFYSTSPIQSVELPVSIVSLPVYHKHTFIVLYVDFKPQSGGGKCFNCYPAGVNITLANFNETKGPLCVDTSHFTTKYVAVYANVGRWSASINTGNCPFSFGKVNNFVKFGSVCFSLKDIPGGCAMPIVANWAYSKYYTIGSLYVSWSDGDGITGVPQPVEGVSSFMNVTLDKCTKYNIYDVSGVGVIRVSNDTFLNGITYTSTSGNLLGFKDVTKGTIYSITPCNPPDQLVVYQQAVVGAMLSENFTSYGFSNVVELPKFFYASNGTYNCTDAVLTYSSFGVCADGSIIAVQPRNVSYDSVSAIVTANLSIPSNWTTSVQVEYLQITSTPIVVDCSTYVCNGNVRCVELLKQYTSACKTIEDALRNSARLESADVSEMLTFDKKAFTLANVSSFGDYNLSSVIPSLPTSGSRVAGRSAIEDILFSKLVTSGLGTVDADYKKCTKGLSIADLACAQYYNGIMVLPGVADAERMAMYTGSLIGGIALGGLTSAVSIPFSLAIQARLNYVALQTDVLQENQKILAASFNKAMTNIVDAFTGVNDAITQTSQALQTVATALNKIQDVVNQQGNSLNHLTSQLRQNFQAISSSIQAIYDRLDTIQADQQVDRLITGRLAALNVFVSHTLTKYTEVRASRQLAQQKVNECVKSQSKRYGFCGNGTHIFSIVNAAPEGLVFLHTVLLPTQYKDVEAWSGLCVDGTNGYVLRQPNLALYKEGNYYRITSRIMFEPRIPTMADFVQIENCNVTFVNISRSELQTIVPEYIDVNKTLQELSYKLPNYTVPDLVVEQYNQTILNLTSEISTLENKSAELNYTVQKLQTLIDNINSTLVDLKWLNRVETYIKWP

B1: Fab B09 (Fab, V domains shown)
VH: EVQLVESGGGLVQPGGSLRLSCAASGFNLSYSSIHWVRQAPGKGLEWVAYIYPYYGSTYYADSVKGRFTISADTSKNTAYLQMNSLRAEDTAVYYCARSWSPSSSYPGYGGLDYWGQGTLVTVSS
VL: DIQMTQSPSSLSASVGDRVTITCRASQSVSSAVAWYQQKPGKAPKLLIYSASSLYSGVPSRFSGSRSGTDFTLTISSLQPEDFATYYCQQSWSYYGSLFTFGQGTKVEIK
B2: Fab A01 (Fab, V domains shown)
VH: EVQLVESGGGLVQPGGSLRLSCAASGFNISSSYIHWVRQAPGKGLEWVASIYSYYSSTSYADSVKGRFTISADTSKNTAYLQMNSLRAEDTAVYYCARGGYAFYGYGSPHSWYALDYWGQGTLVTVSS
VL: B1 VL with S91W, S93P, Y94G, Y95S, G96W, S97G, L98P, F99I
B3: Fab A11 (Fab, V domains shown)
VH: EVQLVESGGGLVQPGGSLRLSCAASGFNIYSSYIHWVRQAPGKGLEWVASISSSYGYTYYADSVKGRFTISADTSKNTAYLQMNSLRAEDTAVYYCARGHGWAYVWSSYYPAGAFALDYWGQGTLVTVSS
VL: DIQMTQSPSSLSASVGDRVTITCRASQSVSSAVAWYQQKPGKAPKLLIYSASSLYSGVPSRFSGSRSGTDFTLTISSLQPEDFATYYCQQSYALITFGQGTKVEIK
B4: Fab A10 (Fab, V domains shown)
VH: EVQLVESGGGLVQPGGSLRLSCAASGFNISSYYMHWVRQAPGKGLEWVAYISPYSGYTYYADSVKGRFTISADTSKNTAYLQMNSLRAEDTAVYYCARAHYPYHGSYWGLDYWGQGTLVTVSS
VL: DIQMTQSPSSLSASVGDRVTITCRASQSVSSAVAWYQQKPGKAPKLLIYSASSLYSGVPSRFSGSRSGTDFTLTISSLQPEDFATYYCQQAGYVPITFGQGTKVEIK
B5: Fab B10 (Fab, V domains shown)
VH: EVQLVESGGGLVQPGGSLRLSCAASGFNLSSSSMHWVRQAPGKGLEWVAYIYPSYSSTYYADSVKGRFTISADTSKNTAYLQMNSLRAEDTAVYYCARASGHFWAYGFDYWGQGTLVTVSS
VL: DIQMTQSPSSLSASVGDRVTITCRASQSVSSAVAWYQQKPGKAPKLLIYSASSLYSGVPSRFSGSRSGTDFTLTISSLQPEDFATYYCQQYSYSGPFTFGQGTKVEIK
B6: Fab D04 (Fab, V domains shown)
VH: EVQLVESGGGLVQPGGSLRLSCAASGFNLSSYYIHWVRQAPGKGLEWVASISPYSSSTYYADSVKGRFTISADTSKNTAYLQMNSLRAEDTAVYYCARWYSPSYGWYWPYASGAGGLDYWGQGTLVTVSS
VL: B5 VL with Y91S, Y93P, S94H, G95Y, P96L, F97I

Substitutions are numbered along the chain they refer to.

One assay addresses T1, HCoV-229E S1 subunit (17–560 aa). The assay can be described thus: SPR. On the technique in general: In SPR one partner is held on a chip, and binding of the other changes the refractive index at the surface.
What is called koff is the rate constant with which the complex falls apart. A high value points to fast dissociation. For the molecule B1, the koff was 0.00064 s⁻¹.
Regarding B2, the off-rate constant (koff) is 0.00068 s⁻¹.
Molecule B3 displayed a koff of 0.0018 s⁻¹.
Same read-out and setting: the result for B4 reads 0.00083 s⁻¹.
Turning to B5, the off-rate constant (koff) was 0.00031 s⁻¹.
In turn, B6 had a koff of 0.0012 s⁻¹.

A further assay has as its target T2, HCoV-229E NTD (17–265 aa). The assay can be described thus: SPR.
B1 returned an off-rate constant (koff) of 0.00037 s⁻¹.
On the same count and under the same terms, the result for B2 reads 0.00076 s⁻¹; that for B3, 0.004 s⁻¹.
In the case of B4, the off-rate (koff) worked out at 0.0015 s⁻¹.
B5 returned an off-rate (koff) of 0.00069 s⁻¹.
With B6, the off-rate (koff) was 0.0026 s⁻¹.

Another assay concerns the target T3, HCoV-229E S ectodomain (17–1115 aa), …. Put plainly: SPR.
Molecule B1 yielded a koff of 0.00015 s⁻¹.
Still for that read-out and setting: the result for B2 reads 0.0017 s⁻¹.
The molecule B3 returned an off-rate (koff) of 0.0034 s⁻¹. This koff lies about 2-fold higher than the previous one.
Same read-out and setting: then B4, with 0.00021 s⁻¹; and B5, with 0.00044 s⁻¹; and B6, with 0.0012 s⁻¹.

The next assay has the same target. The assay can be described thus: SPR. The source holds these as a separate data set.
For orientation: Kd means the free concentration of one partner at which half of the binding sites on the other are occupied at equilibrium, for simple one-to-one binding. Low values mean a tighter complex, high ones a looser complex. B1 displayed a Kd of 33 nM.
Turning to B2, the Kd was determined as 32 nM.
Still for that read-out and setting: then B3, with 9.4 nM; and B4, with 6.3 nM; and B5, with 2.5 nM.
The same measure, in the same setting: the result for B6 reads 2 nM.

A further assay addresses T1, HCoV-229E S1 subunit (17–560 aa). Put plainly: SPR. This is another data set of the same source.
B1 had a Kd of 32 nM. That is a double-digit nanomolar value.
In the case of B2, binding was characterised by a dissociation constant (Kd) of 17 nM.
The same measure, in the same setting: the result for B3 reads 3.2 nM.
Take B4: the affinity, expressed as Kd, was 3.6 nM. The Kd values of the last two molecules are within 1.5-fold of each other.
On the same count and under the same terms, the result for B5 reads 2.3 nM; that for B6, 2 nM.

In the next assay the target is T2, HCoV-229E NTD (17–265 aa). The assay can be described thus: SPR. The source holds these as a separate data set.
As for B1, binding was put at a Kd of 235 nM. This lies in the sub-micromolar range.
On the same count and under the same terms, then B2, with 31 nM; and B3, with 8.8 nM; and B4, with 4.6 nM.
On the same count and under the same terms, then B5, with 5.5 nM; and B6, with 7.7 nM.
